Data taken from patent US20110243954A1 (published 2011).

B1: 12A2 sv1-AAA-12A2 sv1-9GS-59C2 (vWF-0055) (VHH)
chain: DVQLVESGGGLVQPGGSLRLSCAASGRTFSYNPMGWFRQAPGKGRELVAAISRTGGSTYYPESVEGRFTISRDNAKRTVYLQMNSLRAEDTAVYYCAAAGVRAEQGRVRTLPSEYTFWGQGTQVTVSSAAAEVQLVESGGGLVQPGGSLRLSCAASGRTFSYNPMGWFRQAPGKGRELVAAISRTGGSTYYPESVEGRFTISRDNAKRTVYLQMNSLRAEDTAVYYCAAAGVRAEQGRVRTLPSEYTFWGQGTQVTVSSGGGGSGGGSRDWDFDVFGGGTPVGG
notes: bivalent anti-vWF Nanobody with one C-terminal 59C2 peptide
B2: 12A2 sv1-AAA-12A2 sv1-9GS-59C2-9GS-59C2 (vWF-0056) (VHH)
chain: DVQLVESGGGLVQPGGSLRLSCAASGRTFSYNPMGWFRQAPGKGRELVAAISRTGGSTYYPESVEGRFTISRDNAKRTVYLQMNSLRAEDTAVYYCAAAGVRAEQGRVRTLPSEYTFWGQGTQVTVSSAAAEVQLVESGGGLVQPGGSLRLSCAASGRTFSYNPMGWFRQAPGKGRELVAAISRTGGSTYYPESVEGRFTISRDNAKRTVYLQMNSLRAEDTAVYYCAAAGVRAEQGRVRTLPSEYTFWGQGTQVTVSSGGGGSGGGSRDWDFDVFGGGTPVGGGGGGSGGGSRDWDFDVFGGGTPVGG
notes: bivalent anti-vWF Nanobody with a C-terminal tandem repeat of 59C2
B3: PMP56A3 (peptide)
peptide: AALYDDYDVFGGGTPVGG
notes: also called 01C7; PMP26A3 (in the text)
B4: 01B3 (peptide)
peptide: AALYDDYDVFGGGTPAGG
B5: PMP56H5 (peptide)
peptide: AAFYDDYDVFGGGTPAGG
notes: also called 01G7; PMP54H5 (in the text)
B6: PMP56E4 (peptide)
peptide: AARYWDYDVFGGGTPVGG
notes: also called EXP56E4
B7: 59C2 (peptide)
peptide: AARDWDFDVFGGGTPVGG
notes: also called EXP59C2
B8: 59F2 (peptide)
peptide: AARYWDFDVFGGGTPVGG
B9: 59H12 (peptide)
peptide: AARSWDFDVFGGGTPVGG

Each binder was assayed against T1, von Willebrand factor (human, UniProt P04275 764-2813) (assay: inhibition ELISA of ristocetin-induced binding of vWF to platelets).
T1 construct: also called vWF; VWF
Protocol: After 3 times washing with phosphate buffered saline (PBS), wells were incubated for 1 hour at room temperature (RT) with formalin fixed human platelets (Dade Behring, Newark, Del.) which were diluted two-fold in PBS or—as a blank—with PBS. Wells were washed 3 times with PBS and blocked for 2 hours at RT with PBS containing 4% bovine serum albumin (BSA, Sigma). A dilution series of compound was prepared in human plasma and was preincubated for 30 min at RT with 1.5 mg/mL ristocetin (abp, NJ, USA) after which the mixture was transferred to the coated wells. […] For the analysis of the data, the absorbance values were corrected using the absorbance of the respective blanks.
B1: binds.
B2: binds.

The binders below were run against T2, human serum albumin (human, UniProt P02768 25-609) (assay: solution binding competition ELISA: phage pre-incubated with 1 µM HSA, unbound phage captured on coated HSA; signal with competitor / without).
T2 construct: HSA used in ELISA and SPR was bought (Sigma); also called HSA
Protocol: (§1) A competition ELISA was performed to determine the relative binding affinity for the selected phage clones. 96-well Nunc Maxisorp plates were coated with 2 μg/ml HSA in coating buffer at 4° C. Plates were blocked with SuperblockT20 (Pierce) for 1 h at room temperature. The microtiter plates were washed with wash buffer (PBS, 0.05% Tween 20).
Unbound phage was captured by transferring 100 μl of the well mixture to the HSA coated Maxisorp plate and incubating at room temperature for 30 minutes. The plate with captured phage was washed with PBS-0.05% Tween 20 five times. Bound phages were detected with anti-M13 and goat-anti mouse IRDye conjugate. The amount of IRDye bound was measured on Odyssey (LI-COR Biosciences). The ratio of phage binding was calculated by the following equation: fluorescence signal of well with competitor/fluorescence signal of well with no competitor (Table III).
For B3, the “Ratio 1 µM/0 µM HSA” value was 0.47 ratio.
For B4, the “Ratio 1 µM/0 µM HSA” value was 0.42 ratio.
For B5, the “Ratio 1 µM/0 µM HSA” value was 0.43 ratio.

These binders were tested against T2, human serum albumin (assay: phage competition ELISA: signal of well with 2 µM HSA competitor / signal of well with no competitor).
Protocol: as §1
After respectively three and four selection rounds, monoclonal phage were screened for binding on HSA, in the manner described in Example 2. […] The ratio of phage binding was calculated by the following equation: fluorescence signal of well with 2 μM competitor/fluorescence signal of well with no competitor (Table VI).
For B6, the “Ratio 2 µM/0 µM HSA” value was 0.82 ratio.
In the case of B7, the “Ratio 2 µM/0 µM HSA” value is reported as 0.91 ratio.
With B8 the “Ratio 2 µM/0 µM HSA” value was 0.69 ratio.
For B9, the “Ratio 2 µM/0 µM HSA” value was 0.87 ratio.
